Data taken from patent publication US7897569B2, “Use of HMGB fragments as anti-inflammatory agents” (The Feinstein Institute for Medical Research, priority 2001, dated 2011).

B1: A box: Human HMGB1 mutant containing only the A box, SEQ ID NO:21 (A box SEQ ID NO:22) (protein)
chain: MGKGDPKKPTGKMSSYAFFVQTCREEHKKKHPDASVNFSEFSKKCSERWKTMSAKEKGKFEDMAKADKARYEREMKTYIPPKGET
B2: B box: Human HMGB1 mutant containing only the B box, SEQ ID NO:20 (protein)
chain: FKDPNAPKRLPSAFFLFCSEYRPKIKGEHPGLSIGDVAKKLGEMWNNTAADDKQPYEKKAAKLKEKYEKDIAAY

Columns and labels:
HMGB1 = assay: A box inhibition of HMGB1 induced TNF release from RAW 264.7 cells (L929 assay); assay type: cell-based; settings: HMGB1 1 μg/ml, A box 0-25 μg/ml, 16 hours
Protocol: Weak agonists are by definition antagonists. […] This study was carried out as follows. Sub-confluent RAW 264.7 cells in 24-well dishes were treated with HMGB1 (1 μg/ml) and 0, 5, 10, or 25 μg/ml of A box for 16 hours in Opti-MEM I medium in the presence of polymyxin B (100 units/ml). The TNF-stimulating activity (assayed using the L929 cytotoxicity assay described herein) in the sample receiving no A box was expressed as 100%, and the inhibition by A box was expressed as percent of HMGB1 alone. […] Data in FIG. 4A are presented as mean±SD (n=2-3 independent experiments).

[1] = system: Balb/c mice subjected to CLP; assay: Cecal ligation and puncture (CLP) sepsis survival; assay type: in vivo
Protocol: Cecal ligation and puncture (CLP) was performed as described previously (Fink and Heard, J. Surg. Res. 49:186-196, 1990; Wichmann et al., Crit. Care Med. 26:2078-2086, 1998; and Remick et al., Shock 4:89-95, 1995). Briefly, Balb/c mice were anesthetized with 75 mg/kg ketamine (Fort Dodge, Fort Dodge, Iowa) and 20 mg/kg of xylazine (Bohringer Ingelheim, St. Joseph, Mo.) intramuscularly. A midline incision was performed, and the cecum was isolated. A 6-0 prolene suture ligature was placed at a level 5.0 mm from the cecal tip away from the ileocecal valve.
The ligated cecal stump was then punctured once with a 22-gauge needle, without direct extrusion of stool. The cecum was then placed back into its normal intra-abdominal position. The abdomen was then closed with a running suture of 6-0 prolene in two layers, peritoneum and fascia separately to prevent leakage of fluid. All animals were resuscitated with a normal saline solution administered sub-cutaneously at 20 ml/kg of body weight. Each mouse received a subcutaneous injection of imipenem (0.5 mg/mouse) (Primaxin, Merck & Co., Inc., West Point, Pa.) 30 minutes after the surgery. Animals were then allowed to recuperate. Mortality was recorded for up to 1 week after the procedure; survivors were followed for 2 weeks to ensure no late mortalities had occurred.
To determine whether the HMGB1 A box can inhibit the lethality of HMGB1 during sepsis, mice were subjected to cecal perforation and treated by administration of A box beginning 24 hours after the onset of sepsis. CLP was performed on male Balb/c mice as described herein. Animals were randomly grouped, with 15-25 mice per group. The HMGB1 A box (60 or 600 μg/mouse each time) or vector (GST tag, 600 μg/mouse) alone was administered intraperitoneally twice daily for 3 days beginning 24 hours after CLP. Survival was monitored twice daily for up to 2 weeks to ensure no late death occurred. […]
Passive immunization of critically ill septic mice with anti-HMGB1 antibodies was also assessed. […] Survival was monitored for 2 weeks. […]

RAW 264.7 cells [2] = assay: IL-1β release from RAW 264.7 cells (ELISA); assay type: cell-based, murine; settings: B box 1 μg/ml or 10 μg/ml, 8 hours
Protocol: (§1) To further examine the effect of HMGB1 B box on cytokine production, varying amounts of HMGB1 B box were evaluated for the effects on TNF, IL-1 B, and IL-6 production in murine macrophage-like RAW 264.7 cells. Conditioned media were harvested and measured for TNF, IL-1β and IL-6 levels. TNF levels were measured as described herein, and IL-1β and IL-6 levels were measured using the mouse IL-1β and IL-6 enzyme-linked immunosorbent assay (ELISA) kits (R&D System Inc., Minneapolis, Minn.) and N>5 for all experiments.

RAW 264.7 cells [3] = assay: IL-6 release from RAW 264.7 cells (ELISA); assay type: cell-based, murine; settings: B box 0-10 μg/ml, 8 hours
Protocol: as §1

[4] = system: D-galactosamine-sensitized Balb/c mice; assay: Histology and serum cytokines in D-galactosamine-sensitized Balb/c mice; assay type: in vivo
Protocol: To further assess the lethality of the HMGB1 B box protein in vivo the HMGB1 B box was again administered to D-galactosamine-sensitized Balb/c mice. Mice (3 per group) received D-gal (20 mg/mouse) plus B box or vector (1 mg/mouse) intraperitoneally for 7 hours and were then sacrificed by decapitation. Blood was collected, and organs (liver, heart, kidney and lung) were harvested and fixed in 10% formaldehyde. Tissue sections were prepared with hematoxylin and eosin staining for histological evaluation (Criterion Inc., Vancouver, Canada). The results of these studies are shown in FIGS. 7A-7J, which are scanned images of hematoxylin and eosin stained kidney sections (FIG. 7A), myocardium sections (FIG. 7C), lung sections (FIG. 7E), and liver sections (FIGS. 7G and 7I) obtained from an untreated mouse and kidney sections (FIG. 7B), myocardium sections (FIG. 7D), lung sections (FIG. 7F), and liver sections (FIGS. 7H and 7J) obtained from mice treated with the HMGB1 B box. […] In FIG. 7J, hepatocyte dropouts are seen surrounded by accumulated polymorphonuclear leukocytes. The arrows in FIG. 7J point to the sites of polymorphonuclear accumulation (dotted) or apoptotic hepatocytes (solid).

C3H/HeJ mice = assay: Lethality and histology in C3H/HeJ mice; assay type: in vivo
[5] = 1 mg/mouse ip plus D-gal, 7 hours
[6] = C3H/HeJ mice, 8 hours after administration

Molecule | apparent EC50 for inhibition of HMGB1 induced TNF release (HMGB1) | clinical condition and outcome ([1]; 60 μg A box, CLP) | clinical condition ([1]; 600 μg/mouse A box, CLP) | survival ([1]; ip twice daily for 3 days beginning 24 hours after CLP) [%] | IL-1β release (RAW 264.7 cells [2]) | IL-6 release, dose dependence (RAW 264.7 cells [3]) | histology of heart [4, 5] | histology of kidneys and lungs [4, 5] | histology of liver [4, 5] | serum levels of IL-1β ([4]; B box in vivo, Balb/c mice) | serum levels of IL-6 ([4]; B box in vivo, Balb/c mice) | lethality (C3H/HeJ mice; C3H/HeJ mice (do not respond to endotoxin)) | histology of heart (C3H/HeJ mice; [6]) | histology of liver (C3H/HeJ mice; [6]) | histology of lung and kidney (C3H/HeJ mice; [6])
B1 | approximately 7.5 μg/ml | most died | significantly more alert, active, and to resume feeding behavior | 68 |  |  |  |  |  |  |  |  |  |  | 
B2 |  |  |  |  | increased release of IL-1β | increased with increased amounts of B box | some ischemic changes and loss of cross striation in myocardial fibers | no abnormality | active hepatitis | 15+3 pg/ml | 315+93 pg/ml | lethal | evidence of ischemia with loss of cross striation | mild acute inflammatory responses | no abnormal morphologic changes
